Measured values from PMC4188734 (Journal of molecular biology, 2014).
Like-named read-outs stand apart in the source and are kept apart here.

T1: OS-9 CTE (Homo sapiens, UniProt Q13438)
T1 chain: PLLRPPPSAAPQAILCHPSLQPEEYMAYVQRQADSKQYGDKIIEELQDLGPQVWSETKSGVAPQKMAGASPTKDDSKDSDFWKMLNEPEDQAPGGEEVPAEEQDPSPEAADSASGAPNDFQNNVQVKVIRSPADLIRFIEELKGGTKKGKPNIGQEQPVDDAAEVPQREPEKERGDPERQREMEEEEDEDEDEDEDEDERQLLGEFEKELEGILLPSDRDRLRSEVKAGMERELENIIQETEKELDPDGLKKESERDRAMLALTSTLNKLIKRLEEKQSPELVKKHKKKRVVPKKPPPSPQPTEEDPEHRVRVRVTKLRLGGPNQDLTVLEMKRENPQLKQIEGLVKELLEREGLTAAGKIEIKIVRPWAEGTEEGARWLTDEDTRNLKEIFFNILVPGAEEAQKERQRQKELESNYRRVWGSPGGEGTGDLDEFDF

T2: OS-9 ΔMRH (Homo sapiens, UniProt Q13438)
T2 chain: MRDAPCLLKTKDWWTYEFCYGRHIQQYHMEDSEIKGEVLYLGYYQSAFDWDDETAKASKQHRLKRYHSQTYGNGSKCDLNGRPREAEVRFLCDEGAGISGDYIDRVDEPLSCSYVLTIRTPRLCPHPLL

B1: OS-9 ΔMRH (267–666) (domain or fragment, rat, UniProt Q5RKH6 267-666, looked up)
chain: QHEEKVTEEVQDTDHQVWSGSKAAGAPPKKEDVSPTKEDKESEFWKMLQEPEEQATGTEEAQAGEQDLNHEAAADPAPAPPTDFQNNVQVKLIRSPADLIRLIEELKGAEKGKPSVRQEQPGDDTTEAPQREAEAKGKGGEPRGLVEEEDGDEEEEDEDEDEQQLLGEFEKELEGMLLPSDRERLRSEVKAGMERELENIIQETEKELDPEGLRKESEREQAILALTSTLDKLIKRLQESQSPELVQKYKKRRVVPQKPPPSPHPTEEEPEHRVRVRVTKLRHGGPNQDLTVLEMNRENPQLKQIEGLVTEVLEREGLTAEGKIEIKIVRPGAEGKEEDTRWLTDEDTRNLKEIFFNILVQGAEEANKERQRQSELESNYRRVWGSPGGEDTGDLDEFDF
B2: Grp94-C (601–754) (domain or fragment, canine, UniProt P41148 601-754, looked up)
chain: SEKTKESREAIEKEFEPLLNWMKDKALKDKIEKAVVSQRLTESPCALVASQYGWSGNMERIMKAQAYQTGKDISTNYYASQKKTFEINPRHPLIKDMLRRVKEDEDDKTVSDLAVVLFETATLRSGYLLPDTKAYGDRIERMLRLSLNIDPDAK

Columns and labels:
Assay in all cases: ITC
His-Grp94-MC (337–765) [1] = target: T3, His-Grp94-MC (337–765) (canine, UniProt P41148 337-765)
OS-9 CTE = target: T1, OS-9 CTE
OS-9 ΔMRH = target: T2, OS-9 ΔMRH
OS-9 ΔMRH (267–666) = target: B1
Grp94-M (337–594) = Grp94-M (337–594) (canine, UniProt P41148 337-594)
Grp94-C (601–754) = target: B2
His-Grp94-MC (337–765) [2] = target: T3, His-Grp94-MC (337–765); remark: listed apart in the source

Row | Kd (OS-9 CTE) | Kd (OS-9 ΔMRH) | Kd (OS-9 ΔMRH (267–666)) | dH (OS-9 ΔMRH (267–666)) | stoichiometry N (OS-9 ΔMRH (267–666)) | Binder | also measured
1 | – | – | – | – | – | B1 | Kd (His-Grp94-MC (337–765) [1]): 8.4 ± 2.3 µM
2 | 14 µM | 25 µM | 25.4 ± 2.6 µM | -3.3 ± 0.1 kcal/mol | 2.8 ratio of Grp94 monomer to the OS-9 hexamer | Grp94 M domain (protein) NDIKPIWQRPSKEVEDDEYKAFYKSFSKESDDPMAYIHFTAEGEVTFKSILFVPTSAPRGLFDEYGSKKSDYIKLYVRRVFITDDFHDMMPKYLNFVKGVVDSDDLPLNVSRETLQQHKLLKVIRKKLVRKTLDMIKKIADEKYNDTFWKEFGTNIKLGVIEDHSNRTRLAKLLRFQSSHHPSDITSLDQYVERMKEKQDKIYFMAGSSRKEAESSPFVERLLKKGYEVIYLTEPVDEYCIQALPEFDGKRFQNVAKE | –
3 | – | – | 24.6 ± 1.7 µM | -14 ± 0.7 kcal/mol | 1 ratio of Grp94 dimer to the OS-9 hexamer | B2 | –
4 | 22 µM | – | – | -7.2 ± 2.3 kcal/mol | 0.15 ratio of Grp94 dimer to the OS-9 hexamer | Grp94 MC domains (protein) NDIKPIWQRPSKEVEDDEYKAFYKSFSKESDDPMAYIHFTAEGEVTFKSILFVPTSAPRGLFDEYGSKKSDYIKLYVRRVFITDDFHDMMPKYLNFVKGVVDSDDLPLNVSRETLQQHKLLKVIRKKLVRKTLDMIKKIADEKYNDTFWKEFGTNIKLGVIEDHSNRTRLAKLLRFQSSHHPSDITSLDQYVERMKEKQDKIYFMAGSSRKEAESSPFVERLLKKGYEVIYLTEPVDEYCIQALPEFDGKRFQNVAKEGVKFDESEKTKESREAIEKEFEPLLNWMKDKALKDKIEKAVVSQRLTESPCALVASQYGWSGNMERIMKAQAYQTGKDISTNYYASQKKTFEINPRHPLIKDMLRRVKEDEDDKTVSDLAVVLFETATLRSGYLLPDTKAYGDRIERMLRLSLNIDPDAKVEEEPEEEPEE | –
5 | – | – | – | – | – | OS-9 CTE (589–666) (domain or fragment, rat, UniProt Q5RKH6 589-666, looked up) KIEIKIVRPGAEGKEEDTRWLTDEDTRNLKEIFFNILVQGAEEANKERQRQSELESNYRRVWGSPGGEDTGDLDEFDF | Kd (Grp94-M (337–594)): 14.3 ± 2.1 µM; dH (Grp94-M (337–594)): -9.1 ± 1 kcal/mol; stoichiometry N (Grp94-M (337–594)): 3.4 ratio of Grp94 monomer to the OS-9 hexamer; Kd (Grp94-C (601–754)): 15 ± 1.1 µM; dH (Grp94-C (601–754)): -33 ± 1.7 kcal/mol; stoichiometry N (Grp94-C (601–754)): 2.9 ratio of Grp94 dimer to the OS-9 hexamer; Kd (His-Grp94-MC (337–765) [2]): 22.4 ± 2 µM; dH (His-Grp94-MC (337–765) [2]): -11.6 ± 1 kcal/mol; stoichiometry N (His-Grp94-MC (337–765) [2]): 2.7 ratio of Grp94 dimer to the OS-9 hexamer
6 | – | 24 µM | – | – | – | Grp94 C domain (protein) EGVKFDESEKTKESREAIEKEFEPLLNWMKDKALKDKIEKAVVSQRLTESPCALVASQYGWSGNMERIMKAQAYQTGKDISTNYYASQKKTFEINPRHPLIKDMLRRVKEDEDDKTVSDLAVVLFETATLRSGYLLPDTKAYGDRIERMLRLSLNIDPDAKVEEEPEEEPEE | –
